Test results as given in patent US20220226430A1 (TEXAS A AND M UNIVERSITY SYSTEM, published 2022).

Molecular target: Clostridium difficile toxin B (TcdB) from C. difficile strain VPI 10463 (ribotype 087) (Clostridium difficile strain VPI 10463, UniProt P18177 2-2366)
Assay: cell-based or functional assay

Sequence of Clostridium difficile toxin B (TcdB) from C. difficile strain VPI 10463 (ribotype 087) (P18177 2-2366): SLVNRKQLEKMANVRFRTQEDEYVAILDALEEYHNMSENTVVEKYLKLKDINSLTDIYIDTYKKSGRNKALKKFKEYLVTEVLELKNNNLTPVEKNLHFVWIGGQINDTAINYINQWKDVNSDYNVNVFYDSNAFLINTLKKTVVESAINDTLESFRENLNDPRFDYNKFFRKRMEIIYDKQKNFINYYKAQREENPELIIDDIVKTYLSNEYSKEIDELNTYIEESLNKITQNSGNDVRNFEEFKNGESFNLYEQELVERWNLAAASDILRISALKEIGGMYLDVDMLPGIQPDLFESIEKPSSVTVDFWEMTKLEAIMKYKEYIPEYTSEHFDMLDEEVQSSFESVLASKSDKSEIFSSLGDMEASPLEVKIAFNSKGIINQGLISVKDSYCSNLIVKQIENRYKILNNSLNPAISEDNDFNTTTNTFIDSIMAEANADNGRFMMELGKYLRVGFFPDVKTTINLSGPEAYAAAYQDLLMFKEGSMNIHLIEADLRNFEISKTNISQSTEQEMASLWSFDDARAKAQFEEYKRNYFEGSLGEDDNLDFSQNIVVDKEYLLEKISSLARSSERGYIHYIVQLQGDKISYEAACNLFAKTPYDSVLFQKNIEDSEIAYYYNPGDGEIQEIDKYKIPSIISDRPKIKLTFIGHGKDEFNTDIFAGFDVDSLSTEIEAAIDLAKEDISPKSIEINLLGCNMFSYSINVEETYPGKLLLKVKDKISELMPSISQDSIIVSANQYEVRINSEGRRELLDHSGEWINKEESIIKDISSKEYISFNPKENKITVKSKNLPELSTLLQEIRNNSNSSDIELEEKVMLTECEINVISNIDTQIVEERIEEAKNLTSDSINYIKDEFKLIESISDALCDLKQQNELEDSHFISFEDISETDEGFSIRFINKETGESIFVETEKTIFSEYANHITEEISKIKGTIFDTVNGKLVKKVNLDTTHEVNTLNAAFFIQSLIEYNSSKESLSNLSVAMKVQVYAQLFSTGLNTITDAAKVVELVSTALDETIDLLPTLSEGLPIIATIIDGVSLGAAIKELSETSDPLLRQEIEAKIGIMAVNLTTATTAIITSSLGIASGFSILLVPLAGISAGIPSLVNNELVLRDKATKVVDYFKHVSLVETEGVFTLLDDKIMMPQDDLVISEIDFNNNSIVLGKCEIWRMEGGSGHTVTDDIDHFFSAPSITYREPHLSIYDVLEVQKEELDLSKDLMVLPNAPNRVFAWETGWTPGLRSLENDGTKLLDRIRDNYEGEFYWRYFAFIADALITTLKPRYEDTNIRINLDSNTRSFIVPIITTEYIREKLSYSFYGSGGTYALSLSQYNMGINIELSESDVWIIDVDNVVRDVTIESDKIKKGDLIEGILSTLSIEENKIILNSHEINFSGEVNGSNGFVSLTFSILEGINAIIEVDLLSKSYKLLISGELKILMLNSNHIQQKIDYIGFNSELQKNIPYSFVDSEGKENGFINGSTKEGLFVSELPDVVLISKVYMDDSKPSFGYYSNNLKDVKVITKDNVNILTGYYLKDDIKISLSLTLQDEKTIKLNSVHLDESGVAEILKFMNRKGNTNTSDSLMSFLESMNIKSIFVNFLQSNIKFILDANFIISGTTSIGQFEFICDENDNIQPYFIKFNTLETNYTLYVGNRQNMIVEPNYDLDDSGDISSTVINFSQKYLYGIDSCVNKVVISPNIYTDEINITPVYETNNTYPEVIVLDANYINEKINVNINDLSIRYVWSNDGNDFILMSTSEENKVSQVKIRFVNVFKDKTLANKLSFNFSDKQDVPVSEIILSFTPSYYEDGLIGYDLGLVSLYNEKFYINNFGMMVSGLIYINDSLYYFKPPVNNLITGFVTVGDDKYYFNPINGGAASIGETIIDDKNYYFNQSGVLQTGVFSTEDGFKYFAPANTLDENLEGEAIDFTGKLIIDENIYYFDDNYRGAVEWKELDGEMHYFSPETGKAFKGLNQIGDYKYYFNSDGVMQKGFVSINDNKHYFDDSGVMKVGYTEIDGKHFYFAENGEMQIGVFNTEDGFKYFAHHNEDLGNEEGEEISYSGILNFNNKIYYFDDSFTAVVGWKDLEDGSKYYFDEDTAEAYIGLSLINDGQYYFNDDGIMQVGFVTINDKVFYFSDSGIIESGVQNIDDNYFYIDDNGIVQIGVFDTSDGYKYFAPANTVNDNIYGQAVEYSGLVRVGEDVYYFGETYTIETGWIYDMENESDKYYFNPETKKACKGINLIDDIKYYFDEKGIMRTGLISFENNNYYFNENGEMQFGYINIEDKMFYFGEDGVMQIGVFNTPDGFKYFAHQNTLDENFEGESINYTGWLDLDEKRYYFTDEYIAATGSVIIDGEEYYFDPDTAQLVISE

Binder | EC50 of TcdB neutralization (Vero cells, CellTiterGlo) | other results
DARPin U3 (designed binder, not shown: small tags and cut ends) GSDLGKKLLEAARAGQDDEVRILMANGADVNADDRIGMTPLHLAAIGGHLEIVEVLLKNGADVNADDVHGRTPLHLAAGRGHLEIVEVLHGADVNAPDRWGRTPLHLAAHHGHLEIVEVLLKYGADVNAQDKFGKTAFDISIDSGNEDLAEILQSSS |  | toxin-neutralization EC50 (Vero cells): > 25 nM
DARPin 1.4E (designed binder, not shown: small tags and cut ends) GSDLGKKLLEAARAGQDDEVRILMANGADVNATDHLGVTPLHLAAVLGHLEIVEVLLKHGADVNAYDILGRTPLHLAAWRGHLEIVEVLLKYGADVNADDTSGTTPLHLAAGEGHLEIVEVLLKYGADVNAQDKFGKTAFDISIDNGNEDLAEILQSSS | 3 nM | 
DARPin 3.5B (designed binder, not shown: small tags and cut ends) GSDLGKKLLEAARAGQDDEVRILMANGADVNAKDTFGETPLHLAAWKGHLEIVEVLLKYGADVNASDLLGRTPLHLAAWRGHLEIVEVLLKNGADVNASDTGGYTPLHLAAALGHLEIVEVLLKHGADVNAQDKFGKTAFDISIDNGNEDLAEILQSSS |  | toxin-neutralization EC50: 13.3 nM
DARPin 1.2E (designed binder, not shown: small tags and cut ends) GSDLGKKLLEAARAGQDDEVRILMANGADVNAYDARGVTPLHLAAFSGHLEIVEVLLKNGADVNAIDVIGMTPLHLAAWIGHLEIVEVLLKHGADVNAVDRSGNTPLHLAAWLGHLEIVEVLLKYGADVNAQDKFGKTAFDISIDNGNEDLAEILQSSS | 2.4 nM | 
